These results are taken from US20090255014A1 (HELMHOLTZ ZENTRUM F R INFEKTIONSFORSCHUNG, published 2009).

In this experiment the target is T1, native Cpn10 of Oleispira antarctica (Oleispira antarctica, UniProt Q8KM31 1-97).
T1 construct: Co-chaperonin; also called co-chaperonin Cpn10; co-chaperonin
T1 sequence: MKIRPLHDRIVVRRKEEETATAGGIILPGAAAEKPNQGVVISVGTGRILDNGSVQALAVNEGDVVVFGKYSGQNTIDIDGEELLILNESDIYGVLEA
In words: conclusion from in vitro refolding of denatured mtMDH with Cpn10 and ATP. The text has this:
The behaviour of the stabilized single ring mutant led to the conclusion that at the low temperature, the co-chaperonin Cpn10 could bind even to the heptameric conformation, whereas at elevated temperature presumably Cpn10 could not be released from this heptameric single ring.

B1: stabilized single ring mutant Glu461Ala/Ser463Ala/Val464Ala of Cpn60 of O. antarctica (other)
chain: MAAKDVLFGDSARAKMLVGVNILADAVRVTLGPKGRNVVIEKSFGAPIITKDGVSVAREIELKDKFENMGAQMVKEVASQANDQAGDGTTTATVLAQAIISEGLKSVAAGMNPMDLKRGIDKATAAVVAAIKEQAQPCLDTKAIAQVGTISANADETVGRLIAEAMEKVGKEGVITVEEGKGLEDELDVVEGMQFDRGYLSPYFINNQEKMTVEMENPLILLVDKKIDNLQELLPILENVAKSGRPLLIVAEDVEGQALATLVVNNLRGTFKVAAVKAPGFGDRRKAMLQDLAILTGGQVISEELGMSLETADPSSLGTASKVVIDKENTVIVDGAGTEASVNTRVDQIRAEIESSTSDYDIEKLQERVAKLAGGVAVIKVGAGSEMEMKEKKDRVDDALHATRAAVEEGVVAGGGVALIRALSSVTVVGDNEDQNVGIALALRAMEAPIRQIAGNAGAAGAAVVDKVKSGTGSFGFNASTGEYGDMIAMGILDPAKVTRSSLQAAASIAGLMITTEAMVADAPVEEGAGGMPDMGGMGGMGGMPGMM
notes: also called triple mutant Glu461Ala/Ser463Ala/Val464Ala
For the molecule B1, the binding result is “binds”.
